Source: patent publication US6475717

T1: human IL-1-alpha (human) (UniProt P01583)
T1 sequence (looked up): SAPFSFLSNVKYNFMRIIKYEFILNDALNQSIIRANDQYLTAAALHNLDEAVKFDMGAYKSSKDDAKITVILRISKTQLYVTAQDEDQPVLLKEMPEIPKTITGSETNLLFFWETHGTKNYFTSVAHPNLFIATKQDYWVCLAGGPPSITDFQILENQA

T2: human IL-7 (human) (UniProt P13232)
T2 sequence (looked up): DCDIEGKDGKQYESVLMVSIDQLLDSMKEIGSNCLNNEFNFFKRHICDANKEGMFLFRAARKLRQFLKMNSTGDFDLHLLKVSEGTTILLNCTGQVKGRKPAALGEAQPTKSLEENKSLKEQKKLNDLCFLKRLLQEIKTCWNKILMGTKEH

T3: murine recombinant IL-4 (Immunex, Lot 2871-023) (murine) (UniProt P07750)
T3 sequence (looked up): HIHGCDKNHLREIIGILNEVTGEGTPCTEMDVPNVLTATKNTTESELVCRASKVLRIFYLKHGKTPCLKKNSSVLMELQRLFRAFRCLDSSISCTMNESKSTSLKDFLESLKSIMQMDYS

T4: murine IL-1-alpha (murine) (UniProt P01582)
T4 sequence (looked up): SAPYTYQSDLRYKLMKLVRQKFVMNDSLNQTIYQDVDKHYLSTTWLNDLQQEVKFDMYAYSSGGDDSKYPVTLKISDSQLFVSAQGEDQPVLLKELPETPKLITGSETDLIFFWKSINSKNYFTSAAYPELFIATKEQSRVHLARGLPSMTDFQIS

T5: murine IL-1-beta (murine) (UniProt P10749)
T5 sequence (looked up): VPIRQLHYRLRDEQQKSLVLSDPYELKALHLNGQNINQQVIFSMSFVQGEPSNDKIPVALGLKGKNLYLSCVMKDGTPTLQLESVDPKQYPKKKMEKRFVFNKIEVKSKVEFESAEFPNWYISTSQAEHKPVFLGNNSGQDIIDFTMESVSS


Legend:
human IL-1-alpha (human) = target: T1, human IL-1-alpha (human); test: control in IL-4R/Fc sandwich ELISA; hu IL-1 α at 7.5 ng/ml
human TNF-alpha (human) [1] = target: human TNF-alpha (human) (UniProt P01375); test: control in IL-4R/Fc sandwich ELISA; hu-TNF α (Immunex) at 50 ng/ml
human IL-6 (human) = human IL-6 (human) (UniProt P05231); test: control in IL-4R/Fc sandwich ELISA; hu IL-6 at 5000 IU/ml
human IL-1-beta (human) = human IL-1-beta (human) (UniProt P01584); test: control in IL-4R/Fc sandwich ELISA; hu IL-1 β at 16.6 ng/ml
human IL-7 (human) = target: T2, human IL-7 (human); test: control in IL-4R/Fc sandwich ELISA; hu IL-7 at 50 ng/ml
human IL-2 (human) = human IL-2 (human) (UniProt P60568); test: control in IL-4R/Fc sandwich ELISA; hu IL-2 at 5000 IU/ml
[2] = target: T3, murine recombinant IL-4 (Immunex, Lot 2871-023) (murine); test: control in IL-4R/Fc sandwich ELISA; mu IL-4 at 50 ng/ml
human TNF-alpha (human) [3] = target: human TNF-alpha (human) (UniProt P01375); test: control in IL-4R/Fc sandwich ELISA; hu-TNF α as printed (Genzyme B1089) at 50 ng/ml
[4] = target: human recombinant IL-4 (Immunex, Lot 1898-022) (human) (UniProt P05112); test: control in mu IL-4R/Fc sandwich ELISA; hu IL-4 at 50 ng/ml
[5] = target: murine TNF-alpha (murine) (UniProt P06804); test: control in mu IL-4R/Fc sandwich ELISA; mu-TNF α at 100 ng/ml
[6] = target: T4, murine IL-1-alpha (murine); test: control in mu IL-4R/Fc sandwich ELISA; mu IL-1 α at 100 IU/ml
[7] = target: T5, murine IL-1-beta (murine); test: control in mu IL-4R/Fc sandwich ELISA; mu IL-1 β at 10 ng/ml

Sequence of UniProt P01375 (P01375 77-233 limits assumed): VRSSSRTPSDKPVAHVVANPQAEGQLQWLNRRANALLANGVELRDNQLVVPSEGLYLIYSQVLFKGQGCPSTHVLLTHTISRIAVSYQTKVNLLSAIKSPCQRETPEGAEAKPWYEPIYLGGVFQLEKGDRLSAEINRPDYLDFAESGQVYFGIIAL
Sequence of UniProt P60568 (P60568 21-153 limits assumed): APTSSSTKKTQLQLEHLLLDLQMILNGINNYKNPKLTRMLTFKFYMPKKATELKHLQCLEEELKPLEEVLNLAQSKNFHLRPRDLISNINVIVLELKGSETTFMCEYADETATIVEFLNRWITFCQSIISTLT
Sequence of UniProt P05231 (P05231 30-212 limits assumed): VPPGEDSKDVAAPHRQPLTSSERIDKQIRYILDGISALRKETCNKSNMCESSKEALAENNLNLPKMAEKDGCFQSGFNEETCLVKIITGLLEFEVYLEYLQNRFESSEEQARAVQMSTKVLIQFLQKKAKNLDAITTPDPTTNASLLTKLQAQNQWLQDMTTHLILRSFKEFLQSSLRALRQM
Sequence of UniProt P06804 (P06804 80-235 limits assumed): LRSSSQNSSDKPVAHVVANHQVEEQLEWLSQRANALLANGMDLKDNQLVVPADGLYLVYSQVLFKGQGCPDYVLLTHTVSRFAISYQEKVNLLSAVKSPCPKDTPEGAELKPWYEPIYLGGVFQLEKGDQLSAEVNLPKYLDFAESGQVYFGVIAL
Sequence of UniProt P05112 (P05112 25-153 limits assumed): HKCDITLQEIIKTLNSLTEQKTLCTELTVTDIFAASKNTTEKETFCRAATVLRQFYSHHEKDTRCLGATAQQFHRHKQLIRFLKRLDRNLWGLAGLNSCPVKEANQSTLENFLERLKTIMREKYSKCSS
Sequence of UniProt P01584 (P01584 117-269 limits assumed): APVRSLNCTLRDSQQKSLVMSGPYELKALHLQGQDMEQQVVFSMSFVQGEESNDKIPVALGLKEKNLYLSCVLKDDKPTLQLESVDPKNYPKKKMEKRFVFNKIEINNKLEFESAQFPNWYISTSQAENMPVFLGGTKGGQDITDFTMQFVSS

| concentration determined from the extinction (human IL-1-alpha (human)) [pg/mL] | concentration determined from the extinction (human TNF-alpha (human) [1]) [pg/mL] | concentration determined from the extinction (human IL-6 (human)) [pg/mL] | concentration determined from the extinction (human IL-1-beta (human)) [pg/mL] | concentration determined from the extinction (human IL-7 (human)) [pg/mL] | concentration determined from the extinction (human IL-2 (human)) [pg/mL] | concentration determined from the extinction [2] [pg/mL] | concentration determined from the extinction (human TNF-alpha (human) [3]) [pg/mL] | concentration determined from the extinction [4] [pg/mL] | concentration determined from the extinction [5] [pg/mL] | concentration determined from the extinction [6] [pg/mL] | concentration determined from the extinction [7] [pg/mL] | Molecule |
| --- | --- | --- | --- | --- | --- | --- | --- | --- | --- | --- | --- | --- |
| < 31 | < 31 | < 31 | < 31 | < 31 | < 31 | < 31 | < 31 | – | – | – | – | human IL-4 receptor/immunoglobulin Fc fusion protein (from UniProt P24394 26-232) |
| – | – | – | – | – | – | – | – | < 31 | < 31 | < 31 | < 31 | murine IL-4 receptor/immunoglobulin Fc fusion protein (Fc fusion, UniProt P16382 26-233, looked up, not shown: small tags and cut ends) IKVLGEPTCFSDYIRTSTCEWFLDSAVDCSSQLCLHYRLMFFEFSENLTCIPRNSASTVCVCHMEMNRPVQSDRYQMELWAEHRQLWQGSFSPSGNVKPLAPDNLTLHTNVSDEWLLTWNNLYPSNNLLYKDLISMVNISREDNPAEFIVYNVTYKEPRLSFPINILMSGVYYTARVRVRSQILTGTWSEWSPSITWYNHFQLPLIQR |
